Measurements from PMC3794954, “An Improved SELEX-Seq Strategy for Characterizing DNA-Binding Specificity of Transcription Factor: NF-κB as an Example”.

What was measured:
NF-kB p50 [1] = target: T1, NF-kB p50 (UniProt P19838 1-433); assay: EMSA; higher affinity than the 3' T probe; 1x DBB (from 5x): 10 mM Tris-HCl pH 7.5, 50 mM NaCl, 0.5 mM EDTA, 3 mM MgCl2, 1% glycerol, 0.5 mg/ml BSA, 0.05% NP-40, 0.01 mM DTT; room temperature 60 min; 6%; settings: protein: commercial; chain copies: 2; label: biotin at ends; blunt
T1 sequence (P19838 1-433): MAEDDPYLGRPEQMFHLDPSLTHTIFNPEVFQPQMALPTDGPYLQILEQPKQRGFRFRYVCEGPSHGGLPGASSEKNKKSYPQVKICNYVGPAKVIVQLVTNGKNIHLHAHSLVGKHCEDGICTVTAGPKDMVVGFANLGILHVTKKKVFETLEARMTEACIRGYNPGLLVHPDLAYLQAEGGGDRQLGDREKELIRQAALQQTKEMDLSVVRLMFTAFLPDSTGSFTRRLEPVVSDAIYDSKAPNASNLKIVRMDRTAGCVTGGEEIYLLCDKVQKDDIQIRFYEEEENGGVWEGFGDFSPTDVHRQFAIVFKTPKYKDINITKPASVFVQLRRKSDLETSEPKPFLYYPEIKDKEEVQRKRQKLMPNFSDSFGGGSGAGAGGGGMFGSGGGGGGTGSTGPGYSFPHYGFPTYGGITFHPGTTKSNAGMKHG

NF-kB p50 [2] = target: T1, NF-kB p50; assay: EMSA; no polydI-dC; 1x DBB (from 5x): 10 mM Tris-HCl pH 7.5, 50 mM NaCl, 0.5 mM EDTA, 3 mM MgCl2, 1% glycerol, 0.5 mg/ml BSA, 0.05% NP-40, 0.01 mM DTT; room temperature 60 min; 6%; settings: protein: commercial; chain copies: 2; label: 5' FAM on reverse strand (primer P-R); blunt

Binder | binding result (NF-kB p50 [1]) | binding result (NF-kB p50 [2])
probe b (GGGACTTTCCC) (dsDNA) DNA 1: AGTTGAGGGGACTTTCCCAGGC DNA 2: GCCTGGGAAAGTCCCCTCAACT | binds | 
positive dsDNA (dsDNA) DNA 1: ACTGTCTGAGGAGTGTCGTGTGCTAAAGGGACTTTCCAAAACGACTCAGCACCACTTCACTCAC DNA 2: GTGAGTGAAGTGGTGCTGAGTCGTTTTGGAAAGTCCCTTTAGCACACGACACTCCTCAGACAGT |  | binds
